Measured values taken from patent publication US20170157165, “APTAMER FOR FGF2 AND USE THEREOF” (RIBOMIC INC., published 2017).

B1: aptamer ID 3(38) (ssRNA)
RNA: GGGAUACUAGGGCAUUAAUGUUACCAGUGUAGUCCC
modifications: 2'-F at U8,U16,U21,U28,U30; 2'-OH at G12,G27,G29; all others 2'-OMe; 5' PEG 10K (ME-100TS)-C6; 3' idT
B2: aptamer ID 3(39) (ssRNA)
RNA: B1 RNA
modifications: 2'-F at U8,U16,U21,U28,U30; 2'-OH at G12,G27,G29; all others 2'-OMe; 5' PEG 10K 4-branched (PTE-100CS)-C6; 3' idT
B3: aptamer ID 3(36) (ssRNA)
RNA: B1 RNA
modifications: 2'-F at U8,U16,U21,U28,U30; 2'-OH at G12,G27,G29; all others 2'-OMe; 5' PEG 80K (GL4-800TS)-C6; 3' idT
B4: aptamer ID 3(17) (ssRNA)
RNA: B1 RNA
modifications: 2'-OMe at G1,G2,G3,A4,U5,A9,G10,G11,A14,A17,A18,G20,A23,A26; other C and U 2'-F; other purines 2'-OH
B5: aptamer ID 3(40) (ssRNA)
RNA: B1 RNA
modifications: 2'-F at U8,U16,U21,U28,U30; 2'-OH at G12,G27,G29; all others 2'-OMe; 5' PEG 40K (GL2-400TS)-ssH; 3' idT
B6: aptamer ID 3(37) (ssRNA)
RNA: B1 RNA
modifications: 2'-F at U8,U16,U21,U28,U30; 2'-OH at G12,G27,G29; all others 2'-OMe; 5' PEG 40K (Y-NHS-40K)-ssH; 3' idT

These binders were tested against FGF2 (Homo sapiens, UniProt P09038 P09038:135-288) (assay: inhibition; SPR inhibition of FGF2-FGFR1alpha(IIIc); each 0.1 uM). Conditions: tags: Peprotech.
Sequence of FGF2 (P09038 135-288, one chain of several): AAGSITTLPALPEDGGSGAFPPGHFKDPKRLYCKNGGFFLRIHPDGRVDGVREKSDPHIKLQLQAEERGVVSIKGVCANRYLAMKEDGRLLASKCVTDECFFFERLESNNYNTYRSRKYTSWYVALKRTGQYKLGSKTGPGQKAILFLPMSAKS
Description: BIAcore2000 manufactured by BIAcore was used for the measurement. As directed in BIAcore Company's protocol, Protein A (21181, manufactured by PIERCE) was immobilized on a CM5 sensor chip. About 1,000 RU of human FGFR1α (IIIc), R2α (IIIc), R3 (IIIc), R4 (manufactured by R&D Systems) fused with the Fc portion of IgG (manufactured by R&D systems) was each immobilized thereon. As analyte, a mixture of FGF2 (0.1 μM), heparin (0.1 μM) (manufactured by Pfizer) and aptamer (0.15 μM) was flown. Before an inhibitory test, a mixture of FGF2 and heparin was confirmed to bind to 4 kinds of receptors. […] A sensorgram showing that the aptamer shown by aptamer ID 1 inhibits binding of FGF2 and FGFR1α(IIIc), 2α(IIIc), 3(IIIc), 4 is shown in FIG. 2.
In addition, the inhibitory rate against each of the 4 kinds of receptors was determined. The inhibitory rate was determined with the maximum binding amount of the FGF2 and heparin mixture as 0, and the binding amount with an injection buffer alone as 100. The binding amount here means the RU value of the peak top of sensorgram. The inhibitory rate was calculated. […] The inhibitory rate of other aptamers was not more than 50%.
To enhance FGF2-binding activity, stability, drug deliverability and the like, the nucleic acids shown by aptamer IDs 3(1)-3(40), aptamer IDs 4 and 4(1)-4(4), aptamer ID 5 and aptamer ID 6 were chemically synthesized based on the aptamer shown in SEQ ID NO: 3. Here, the aptamer shown by aptamer ID 4 is the aptamer shown by aptamer ID 3(19) wherein one G(M) at the 5′-terminal and one C(M) at the 3′-terminal have been deleted. The aptamer shown by aptamer ID 5 is the aptamer shown by aptamer ID 3(19) wherein one G(M) has been added at the 5′-terminal and one C(M) has been added at the 3′-terminal. The aptamer shown by aptamer ID 6 is the aptamer shown by aptamer ID 3(19) wherein A(M) alone has been added at the 5′-terminal. These nucleic acids were produced by chemical synthesis.

Point of comparison: GGGAUACUAGGGCAUUAAUGUUACCAGUGUAGUCCC (ssRNA, 2'-F at U8,G12,U16,U21,G27,U28,U30; 2'-OH at G29; all others 2'-OMe; 3' idT) [aptamer ID 3(35)], activity 84%. Against it:
- GGGAUACUAGGGCAUUAAUGUUACCAGUGUAGUCCC (ssRNA, all C and U 2'-F; 2'-OMe at G1,G2,G3,A4; other purines 2'-OH) [aptamer ID 3(2)] — higher, 89%
- GGGAUACUAGGGCAUUAAUGUUACCAGUGUAGUCCC (ssRNA, all C and U 2'-F; 2'-OMe at A26; other purines 2'-OH) [aptamer ID 3(7)] — higher, 89%
- B1 — higher, 97%
- GGGAUACUAGGGCAUUAAUGUUACCAGUGUAGUCCC (ssRNA, all C and U 2'-F; 2'-OMe at A23; other purines 2'-OH) [aptamer ID 3(6)] — lower, 78%
- B2 — higher, 97%
- GGGAUACUAGGGCAUUAAUGUUACCAGUGUAGUCCC (ssRNA, all C and U 2'-F; 2'-OMe at A31; other purines 2'-OH) [aptamer ID 3(11)] — higher, 88%
- GGGAUACUAGGGCAUUAAUGUUACCAGUGUAGUCCC (ssRNA, all C and U 2'-F; 2'-OMe at G11; other purines 2'-OH) [aptamer ID 3(3)] — higher, 87%
- GGGAUACUAGGGCAUUAAUGUUACCAGUGUAGUCCC (ssRNA, all C and U 2'-F; 2'-OMe at G10; other purines 2'-OH) [aptamer ID 3(4)] — higher, 89%
- B3 — higher, 98%
- GGGAUACUAGGGCAUUAAUGUUACCAGUGUAGUCCC (ssRNA, all C and U 2'-F; 2'-OMe at A9; other purines 2'-OH) [aptamer ID 3(5)] — higher, 87%
- B4 — higher, 88%
- GGGAUACUAGGGCAUUAAUGUUACCAGUGUAGUCCC (ssRNA, 2'-F at U8,U16,U21,U28,U30; 2'-OH at G12,G27,G29; all others 2'-OMe; 5' idT) [aptamer ID 3(20)] — higher, 96%
- B5 — higher, 97%
- GGGAUACUAGGGCAUUAAUGUUACCAGUGUAGUCCC (ssRNA, 2'-F at U8,G12,U16,U21,G27,U28,G29,U30; all others 2'-OMe; 3' idT) [aptamer ID 3(34)] — higher, 91%
- GGGAUACUAGGGCAUUAAUGUUACCAGUGUAGUCCC (ssRNA, all C and U 2'-F; 2'-OMe at A6; other purines 2'-OH) [aptamer ID 3(9)] — higher, 89%
- B6 — higher, 97%
- GGGAUACUAGGGCAUUAAUGUUACCAGUGUAGUCCC (ssRNA, all C and U 2'-F; 2'-OMe at G32; other purines 2'-OH) [aptamer ID 3(10)] — higher, 89%
